# Experimental data published in the supplement of paper PMC7125110.
# ± gives the standard error. Fewer inactive variants are shown than the library holds.
# B1: glmS ribozyme (parent)
# chain: AUAAAAGCGCCAGAACUACAGAAAUGUAGUUGACGAGGAGGAGGUUUAUCGAAUUUUCGGCGGAUGCCUCCAAA
# Variants of: B1
# Assay: self-cleavage kobs at 2500 uM GlcN6P; higher = faster cleavage; RNA array
# Details: with glucosamine-6-phosphate
# In short: (§1)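 In situ transcription by E. coli RNA polymerase produced barcoded ribozyme variants on sequenced MiSeq chips, and a hybridised Cy3 probe tracked them at 37 °C. Glucosamine-6-phosphate was flowed in at 40 μM to 10 mM in HEPES/KCl/Mg(OAc)2 buffer. kcat and KM were taken from weighted Michaelis–Menten fits of kobs values from exponential decay fits.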
row,Variant,self-cleavage kobs at 2500 uM GlcN6P [s⁻¹]
1,A6U C16G G40C G41A C70A,< 1e-05
2,G7C A14G G43A U46A U47C G60U,< 1e-05
3,A42G C68G,0.000308 ± 7.3e-05
4,G59A C61A,< 1e-05
5,C50U G59U U69A C70G,7.32e-05 ± 2.9e-05
6,A6U C8U C58G,< 1e-05
7,A6G C16U G40C U46A G66U,< 1e-05
8,A6C A33U A52G U57C C70U,< 1e-05
9,A6G A12C C16U,0.000167 ± 3.6e-05
10,A53G G62C,< 1e-05
11,A6U G29A G41U U65C C68U,< 1e-05
12,A6C A15U G43U U54G,< 1e-05
13,A6U G38A C50G C67U,6.17e-05 ± 1.7e-05
14,G44C U56C G59U,< 1e-05
15,A6U C11A G29A C50U,< 1e-05
16,G7U A12U G44U,< 1e-05
17,A6G G60U G66U,< 1e-05
18,G7A C8U A36G G60U,< 1e-05
19,U45C C71G,5.59e-05 ± 2.2e-05
20,G7A U45A U49G,< 1e-05
21,A6C C8U U45G U65C C67A,< 1e-05
22,G7A A12G G44A U47G,< 1e-05
23,A6C G7C G41A,< 1e-05
24,U47C C67A,0.000286 ± 9.8e-05
25,A52C A53U C67U C68U,9.26e-05 ± 4.1e-05
26,A6G A33U C58A,< 1e-05

row,Variant,self-cleavage kobs at 2500 uM GlcN6P [s⁻¹]
1,U45A G63C,< 1e-05
2,A6G C34U A36C,< 1e-05
3,G7C G40U C50G G66C,< 1e-05
4,A52G U56G C67A U69C,0.000192 ± 5.3e-05
5,C50G A52G G60U C71U,6.62e-05 ± 2.9e-05
6,A6G A15C G63A,< 1e-05
7,G44A U45C C61A,< 1e-05
8,C50U U56A G66U,< 1e-05
9,U54C U55G C58A,0.000102 ± 1.2e-05
10,G7C C10G A48C,< 1e-05
11,G7C A12G A39U A42C U65C C71A,< 1e-05
12,G7C A15C G32U C58U C61U,< 1e-05
13,A6G C16U C58U U65G,< 1e-05
14,A48C U55G,0.00018 ± 7e-05
15,U47A A52U A64G,0.000177 ± 5.4e-05
16,G7A C8U C10U A12C A36C U49G G60C A64U,< 1e-05
17,G7C C34A U57C G63C,< 1e-05
18,A6U C10A U49C C70G C71G,0.00019 ± 8.2e-05
19,C50G U54C G60C C61G,8.41e-05 ± 2.8e-05
20,A6G G7A C16G U49C A53U C67U,< 1e-05
21,A6U U45G A48U,< 1e-05
22,A6U A14G U56A,0.000586 ± 0.00023
23,C50G A64U C70U,0.000192 ± 4.3e-05
24,U45A U57A,0.000423 ± 7.9e-05
25,G7A G43A C70A,< 1e-05
26,G43A G44U C68G,< 1e-05

row,Variant,self-cleavage kobs at 2500 uM GlcN6P [s⁻¹]
1,A6C G9A G32A,< 1e-05
2,A6G G9C A33U C70U,< 1e-05
3,A6U G7C A15U G29C G38A G44A C61A,< 1e-05
4,A6U C10A C11G G35U,< 1e-05
5,A6U G38C U47A A48G G66A U69G,< 1e-05
6,A6U A53U G63U,< 1e-05
7,A6G G9C G63C A64U,< 1e-05
8,A6C U30C A39U U47A C50U A53C,< 1e-05
9,U47A G62A,< 1e-05
10,A6U C11U C34G G40A A52G G60A C71A,< 1e-05
11,A6G G29C A33C U47G,< 1e-05
12,U55G G59A C70A,< 1e-05
13,G44A A53U C67A,0.00591 ± 0.0013
14,A6U G37C A64G,< 1e-05
15,U46C C71G,0.000331 ± 5e-05
16,G7C G51U G59A,< 1e-05
17,A6G G9A G38A A48G A53G C71G,< 1e-05
18,A48C G60C C71G,< 1e-05
19,U46C A48U C50G G51U,< 1e-05
20,G7C A48U A64U C67U,< 1e-05
21,A6U A15U G51C,< 1e-05
22,G7A A36U U46G A48C C70U C71G,< 1e-05
23,U47A G66C C71U,0.000491 ± 0.00012
24,A6G A14C G38C,< 1e-05
25,A6U U54G G66C C67U,< 1e-05
26,U46G U55C C67A,6.57e-05 ± 1.5e-05

row,Variant,self-cleavage kobs at 2500 uM GlcN6P [s⁻¹]
1,A6C C10G A36G,< 1e-05
2,A53G U55A U65G,0.00174 ± 0.00031
3,A42C G43U U57A,< 1e-05
4,G7A A39C G63A,< 1e-05
5,A6G A42C U69G,0.000462 ± 0.00019
6,A6G A33C U46G,< 1e-05
7,A6G A39G U54G,0.000164 ± 4.9e-05
8,A6G A12G U54G A64U C70G,< 1e-05
9,U57G A64U U69G,6.09e-05 ± 1.5e-05
10,U45G U49G,0.000422 ± 8.4e-05
11,A42G U54G U55G U65A C67A C71U,8.43e-05 ± 2e-05
12,A48G C58A C67G C70U,6.91e-05 ± 2.5e-05
13,U2G U46G A53U,0.00369 ± 0.0011
14,G44U C58A G59U,< 1e-05
15,A6C U47C G63C,< 1e-05
16,A6U G44U U46A A52U U56G C58U C70U,< 1e-05
17,A6C A12U C50G G51C U54A,< 1e-05
18,G44U U47C C71U,< 1e-05
19,G41U G51C U69C,< 1e-05
20,G7C G38C G51U,< 1e-05
21,G43A G62U C67A,< 1e-05
22,C58A C70A C71A,0.000492 ± 0.00012
23,A6G A12G G51U,< 1e-05
24,G7C A42G U69G,< 1e-05
25,G7C A14C G60C,< 1e-05

# Variants of: B1
# Assay: self-cleavage kobs at 640 uM GlcN6P; higher = faster cleavage; RNA array
# Details: with glucosamine-6-phosphate
# In short: as §1
row,Variant,self-cleavage kobs at 640 uM GlcN6P [s⁻¹]
1,A42G C68G,7.72e-05 ± 2.8e-05
2,G59A C61A,< 1e-05
3,C50U G59U U69A C70G,0.000556 ± 0.00018
4,G44C C50G G62U,< 1e-05
5,A53G G62C,< 1e-05
6,G44C U56C G59U,< 1e-05
7,A42C G51A U69A,< 1e-05
8,U45C C71G,8.57e-05 ± 2.5e-05
9,U49A U57C,< 1e-05
10,U57A G62A,< 1e-05
11,U47C C67A,0.000623 ± 0.00018
12,A42U G59C G60A,< 1e-05
13,A52C A53U C67U C68U,6.36e-05 ± 3e-05
14,G44A C50U G63U,< 1e-05
15,U45A G63C,< 1e-05
16,U57C C67U C68A,8.67e-05 ± 4e-05
17,U46G C50G C71A,8.98e-05 ± 3.3e-05
18,A42U C61U C67U,< 1e-05
19,A52U C70G C71A,8.24e-05 ± 2.8e-05
20,U45A A48C G60U C67U,< 1e-05
21,G51U G63C G66U U69A C70A,< 1e-05
22,A52G U56G C67A U69C,9.46e-05 ± 1.8e-05
23,C50G A52G G60U C71U,0.000392 ± 0.00013
24,G44A U45C C61A,< 1e-05
25,C50U U56A G66U,< 1e-05
26,U54C U55G C58A,7.47e-05 ± 1.6e-05
27,U49G C68G U69G,5.67e-05 ± 2.1e-05

row,Variant,self-cleavage kobs at 640 uM GlcN6P [s⁻¹]
1,A48C U55G,0.000142 ± 3.3e-05
2,U45C G63U C67U,< 1e-05
3,U47A A52U A64G,7.01e-05 ± 1.7e-05
4,A42U G60C C61U,< 1e-05
5,A52G C58G U65C,< 1e-05
6,C50G U54C G60C C61G,0.000234 ± 5.5e-05
7,A42C G43U G44U G51U,< 1e-05
8,A53C U55G C71G,0.000116 ± 3.1e-05
9,A48U G59C C68G,< 1e-05
10,C50G A64U C70U,0.000173 ± 5.1e-05
11,U45A U57A,0.000159 ± 4.5e-05
12,G43A G44U C68G,< 1e-05
13,C50G G63C C67U,0.000103 ± 4.4e-05
14,U49A G63U,< 1e-05
15,G59A U69A,< 1e-05
16,U47A G62A,< 1e-05
17,U55G G59A C70A,< 1e-05
18,A52C A53G G60C U65C,< 1e-05
19,G44A A53U C67A,0.00108 ± 0.00027
20,C50U C58A C68U,8.66e-05 ± 2.6e-05
21,U46C C71G,7.56e-05 ± 1.5e-05
22,A48C G60C C71G,< 1e-05
23,G44A A53U U54G C61U,< 1e-05
24,G44C U47G,< 1e-05
25,A42G A53U C67G,0.00199 ± 0.00049
26,U46C A48U C50G G51U,< 1e-05
27,U47A G66C C71U,0.000187 ± 6.3e-05

row,Variant,self-cleavage kobs at 640 uM GlcN6P [s⁻¹]
1,U46G U55C C67A,8.32e-05 ± 1.9e-05
2,A53G U55A U65G,0.000667 ± 8.4e-05
3,A42C G43U U57A,< 1e-05
4,G62A G63C C70A C71U,5.14e-05 ± 2.3e-05
5,G59U G62A C70G,5.34e-05 ± 1.5e-05
6,U49C G51A,< 1e-05
7,U47G G62U,< 1e-05
8,U57G A64U U69G,0.000149 ± 5.9e-05
9,U45G U49G,0.000102 ± 1.6e-05
10,A42G U54G U55G U65A C67A C71U,0.000215 ± 3.1e-05
11,A48G C58A C67G C70U,0.000135 ± 4.4e-05
12,A48C C70U C71G,< 1e-05
13,G43A U57G U69A,< 1e-05
14,G44U C58A G59U,< 1e-05
15,U45C U69G,8.34e-05 ± 3.9e-05
16,C50A C58U C67G,8.03e-05 ± 3.9e-05
17,U45C U46G U57A,< 1e-05
18,G44U U47C C71U,< 1e-05
19,G43A C50A,< 1e-05
20,G51A A53G C71A,< 1e-05
21,G41U G51C U69C,< 1e-05
22,U47A G51A C71G,0.0001 ± 3.9e-05
23,G43A G62U C67A,< 1e-05
24,C58A C70A C71A,8.13e-05 ± 2.5e-05
25,C50A G62C A64G,< 1e-05
26,A48G A53C C58U G59U,< 1e-05

# Variants of: B1
# Assay: self-cleavage kobs at 10000 uM GlcN6P; higher = faster cleavage; RNA array
# Details: with glucosamine-6-phosphate
# In short: as §1
row,Variant,self-cleavage kobs at 10000 uM GlcN6P [s⁻¹]
1,A42G C68G,0.000128 ± 2.2e-05
2,U45C C71G,0.000305 ± 6.9e-05
3,U47C C67A,0.000244 ± 8e-05
4,A52G U56G C67A U69C,0.000295 ± 8.2e-05
5,G7C A15C G32U C58U C61U,< 1e-05
6,A6U A14G U56A,0.00142 ± 0.00018
7,A6U G7C A15U G29C G38A G44A C61A,< 1e-05
8,A6U G38C U47A A48G G66A U69G,< 1e-05
9,U46C C71G,0.000149 ± 6.2e-05
10,A42G A53U C67G,0.00458 ± 0.0017
11,U46C A48U C50G G51U,< 1e-05
12,A42C G43U U57A,< 1e-05
13,A6G A33C U46G,< 1e-05
14,U49C G51A,< 1e-05
15,A48G C58A C67G C70U,4.32e-05 ± 1.3e-05
